The values that follow come from patent publication US6348317B1, “Fluorescent and DNA cleavage properties of peptide/dye conjugates” (The Arizona Board of Regents, priority 1999, dated 2002).

No end group written: not given here.

The test system of data set [1] is Hin recombinase consensus sequence (hixL) dsDNA. As to the kind of experiment: Total fluorescence reverse titration of conjugate with nonlabeled consensus DNA. Type of data set: binding, S. typhimurium. As to the method:
Fluorescence Measurements. Steady state fluorescence anisotropy and total fluorescence measurements were performed as forward and reverse titrations, respectively, as described previously, M. Thompson, et al., supra, 2000. Forward titrations of the tetramethylrhodamine labeled DNA (TMR-DNA) with nonlabeled DNA-binding domains were performed at 10 nM TMR-DNA. Vertical excitation was at 542 nm with detection in the verticle and horizontal planes at 582 nm. Reverse titrations of 1 nM of the appropriate conjugate were titrated with nonlabeled DNA. Excitation and emission detection was at 480 nm and 510 nm for oxazole yellow and 510 nm and 535 nm for thiazole orange samples. Salt dependence studies were performed by titrating an appropriate amount of 1 M NaCl in the same Tris buffer to yield the indicated final salt concentration. Temperature dependence studies were performed by incubating each sample for 30 minutes at the given temperature. The temperature of the sample was held constant by pumping water through the cuvette holder from a temperature equilibrated water bath. Each titration was performed at least 3 times.
Determination of thermodynamic functions. The contribution of the hydrophobic effect and the polyelectrolyte effect to the stability of the conjugate or DNA-binding domain—DNA complex is assessed by analysis of the dependence of the observed association equilibrium constant Kobs for a range of temperatures and salt concentrations as in the following: [formula]
where, [P] eq is the concentration of the conjugate or DNA-binding domain, [D] eq is the concentration of DNA, and [PD] eq is the concentration of bound complex at equilibrium. The analysis is based on the assumption that this is a single-step bimolecular reaction.
Specific binding by the dye labeled peptides (conjugates). The binding affinity of the two dye labeled peptides comprising the Hin recombinase and Tc3 transposase DNA-binding domains conjugated to oxazole yellow and thiazole orange, respectively, were determined. In this case, the total fluorescence intensity can be used to determine the binding affinity by these systems. […] In addition, the bound and free populations of the conjugate, and therefore the dye, present at equilibrium have such an extreme increase in quantum yield (˜1000-5000-fold) that the total fluorescence from the system is a very sensitive and accurate way to monitor binding. Note that each oligonucleotide shown was hybridized to […] forming a dsDNA segment.
In FIG. 9, semi-log plot of the total fluorescence of I nM conjugate is plotted as the log of the concentration of nonlabeled DNA containing each respective consensus sequence. The solid lines represent a fit for the percent of the maximal fluorescence values at 298 K, 0.150 M Na+, (●),313 K, 0.150 M Na+ (t) and 298 K, 0.250 M Na+(▪). The binding constants (Kobs) determined from these curves and the corresponding binding free energies (DG°) are given in Table 1 for the range of salt concentrations (0.15 to 0.25 M Na+) and temperatures (275 to 313 K) investigated. The equilibrium constant decreases 7- and 10-fold for the TOTc3 and YOHin, respectively, when the salt concentration is increased from 0.15 to 0.25 M salt.

The target of data set [2] is T1, TO-ZF (thiazole orange-GR zinc finger conjugate) (UniProt P06536 SEQ:1-28).
T1 chain: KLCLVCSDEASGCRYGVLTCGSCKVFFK
Kind of data set: same as poly(dG)-poly(dC) within experimental error. As to conditions: protein: synthetic; tags: thiazole orange on Lys epsilon-amine (first residue coupled to resin); synthetic solid-phase peptide (text states 29 aa, listing 28 aa), Zn-loaded.

Data set [3] deals with T2, YOHin (oxazole yellow-Hin recombinase DNA-binding domain, residues 139-190) (UniProt P03013 SEQ:1-52).
T2 chain: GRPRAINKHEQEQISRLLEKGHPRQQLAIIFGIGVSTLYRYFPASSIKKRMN
Kind of data set: 298 K, 0.150 M Na+; 275 K 22e6, 293 K 143e6, 313 K 29e6; 298 K 0.250 M Na+ 14e6. As to conditions: protein: synthetic; tags: oxazole yellow covalently attached; synthetic solid-phase peptide.

For data set [4], the target named is T1, TO-ZF (thiazole orange-GR zinc finger …). Kind of data set: TO fluorescence titration; same buffer. As to conditions: protein: synthetic; tags: thiazole orange on Lys epsilon-amine (first residue coupled to resin); synthetic solid-phase peptide (text states 29 aa, listing 28 aa), Zn-loaded.
Data set [5] shares this target. As to the kind of experiment: TO fluorescence titration; two base changes vs GRE. The settings on record: protein: synthetic; tags: thiazole orange on Lys epsilon-amine (first residue coupled to resin); synthetic solid-phase peptide (text states 29 aa, listing 28 aa), Zn-loaded.
Data set [6] has the same target. Kind of data set: TO fluorescence titration; single G to A change in half-site. The settings on record: protein: synthetic; tags: thiazole orange on Lys epsilon-amine (first residue coupled to resin); synthetic solid-phase peptide (text states 29 aa, listing 28 aa), Zn-loaded.
Data set [7] shares this target. As to the kind of experiment: TO fluorescence titration; 20 mM Tris pH 7.9, 30 mM NaCl, 20 mM KCl, 1 mM MgCl2, 5% glycerol, ZnCl2. As to conditions: protein: synthetic; tags: thiazole orange on Lys epsilon-amine (first residue coupled to resin); synthetic solid-phase peptide (text states 29 aa, listing 28 aa), Zn-loaded.
In data set [8] the target is T3, TOTc3 (thiazole orange-Tc3 transposase DNA-binding domain, residues 202-253) (UniProt P34257 SEQ:1-51).
T3 chain: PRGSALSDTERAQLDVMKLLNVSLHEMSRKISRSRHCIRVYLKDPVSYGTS
Kind of data set: 298 K, 0.150 M Na+; 275 K 22e6, 293 K 66e6, 313 K 22e6; 298 K 0.250 M Na+ 17e6. As to conditions: protein: synthetic; tags: thiazole orange covalently attached; synthetic solid-phase peptide (text states 52 aa, listing 51 aa).

Data set [9] has as its target T1, TO-ZF (thiazole orange-GR zinc finger …). Kind of data set: TO fluorescence titration; single base change in half-site. As to conditions: protein: synthetic; tags: thiazole orange on Lys epsilon-amine (first residue coupled to resin); synthetic solid-phase peptide (text states 29 aa, listing 28 aa), Zn-loaded.

In the case of “YOHin: oxazole yellow conjugated to the 52 amino acid Hin DNA binding domain, residues 139-190 of Hin recombinase (GRPRAINKHEQEQISRLLEKGHPRQQLAIIFGIGVSTLYRYFPASRIKKRMN; also: oxazole yellow conjugated, site not given here; UniProt P03013 139-190, looked up, fragment)”, in [1] (0.15 to 0.25 M salt), the “decrease of equilibrium constant when salt is increased from 0.15 to 0.25 M” value was determined as 10 fold. The Kobs in data set [1] (275 K, 0.150 M Na+) was 22 (M^−1) × 10^−6; in data set [1] (278 K, 0.150 M Na+), 21 (M^−1) × 10^−6; in data set [1] (283 K, 0.150 M Na+), 40 (M^−1) × 10^−6; in data set [1] (288 K, 0.150 M Na+), 61 (M^−1) × 10^−6; in [1] (293 K, 0.150 M Na+), 143 (M^−1) × 10^−6; in [1] (298 K, 0.150 M Na+) it was 83 (M^−1) × 10^−6. Further, the Kobs in data set [1] (298 K, 0.175 M Na+) is 67 (M^−1) × 10^−6; in data set [1] (298 K, 0.200 M Na+), 37 (M^−1) × 10^−6; in data set [1] (298 K, 0.225 M Na+), 29 (M^−1) × 10^−6; in data set [1] (298 K, 0.250 M Na+), 14 (M^−1) × 10^−6; in [1] (303 K, 0.150 M Na+), 60 (M^−1) × 10^−6; in [1] (308 K, 0.150 M Na+), 41 (M^−1) × 10^−6. Besides, in [1] (313 K, 0.150 M Na+), the Kobs is on record as 29 (M^−1) × 10^−6. The “ΔG°” value in data set [1] (275 K, 0.150 M Na+) was -38.5 kJ/mol; in data set [1] (278 K, 0.150 M Na+), -38.9 kJ/mol; in [1] (283 K, 0.150 M Na+), -41 kJ/mol; in data set [1] (288 K, 0.150 M Na+) it was -43.1 kJ/mol; in [1] (293 K, 0.150 M Na+), -45.6 kJ/mol; in data set [1] (298 K, 0.150 M Na+) it was -45.2 kJ/mol. Also, the “ΔG°” value in data set [1] (298 K, 0.175 M Na+) was -44.8 kJ/mol; in [1] (298 K, 0.200 M Na+), -43.1 kJ/mol; in [1] (298 K, 0.225 M Na+), -42.7 kJ/mol; in data set [1] (298 K, 0.250 M Na+), -41 kJ/mol; in [1] (303 K, 0.150 M Na+), -45.2 kJ/mol; in data set [1] (308 K, 0.150 M Na+), -44.8 kJ/mol. The “ΔG°” value in data set [1] (313 K, 0.150 M Na+) is -44.8 kJ/mol.

B1: (dGdC)20 (dsDNA)
DNA 1: GCGCGCGCGCGCGCGCGCGCGCGCGCGCGCGCGCGCGCGC
DNA 2: B1 DNA 1
modifications: [none]
What is called Kd is the concentration at which binding is half-saturated. A high value points to lower affinity. B1 gave a Kd in data set [2] of approximately 1.1 µM.

B2: hixL (Hin consensus) oligonucleotide (dsDNA)
DNA 1: TCTTATCAAAAACACTATCGTCGCACGGCTAC
DNA 2: GTAGCCGTGCGACGATAGTGTTTTTGATAAGA
For the molecule B2, the Ka in data set [3] turned out to be 8.3e+07 M⁻¹.

B3: GRE2 (dsDNA)
DNA 1: TGATACGGCTGACTGTTCTATGA
DNA 2: TCATAGAACAGTCAGCCGTATCA
Regarding B3, the Kd in data set [4] turned out to be 0.025 µM.

B4: ERE (dsDNA)
DNA 1: TCATACATCTAACTGACCTATCA
DNA 2: TGATAGGTCAGTTAGATGTATGA
For the molecule B4, the Kd in [5] stood at 0.81 µM.

B5: GRE3 (dsDNA)
DNA 1: TCATACATCTAACTATTCTATCA
DNA 2: TGATAGAATAGTTAGATGTATGA
For B5, the Kd in data set [6] came to 0.057 µM.

B6: GRE1 (dsDNA)
DNA 1: TCATACCACTAACTGTTCTATCA
DNA 2: TGATAGAACAGTTAGTGGTATGA
As to B6, binding in [7] was put at a Kd of 0.025 µM.

B7: Tc3 consensus oligonucleotide (dsDNA)
DNA 1: ATCGGCACGATGCTAGTTCTATAGGACCCCCC
DNA 2: GGGGGGTCCTATAGAACTAGCATCGTGCCGAT
For B7, the Ka in data set [8] is 2.45e+08 M⁻¹.

B8: GRE4 (dsDNA)
DNA 1: TCATACATCTAACTGTCCTATCA
DNA 2: TGATAGGACAGTTAGATGTATGA
As to B8, the Kd in data set [9] was determined as 0.22 µM.
